# Assay results reported in patent US11807881B2, “Polypeptide, fusion polypeptide, and antibiotic against gram-negative bacteria comprising same” (priority 2020, dated 2023).
# B1: LNT101: endolysin derived from bacteriophage PBPA90, amino acid sequence SEQ ID NO: 1 (259 aa), purified with 6× His tag (protein)
# chain: MGTVLKRGDRGSAVEDLQMKLRVAGYAVSADGIFGGDTEKAVRDFQASKALVVDGKVGPATLAELAKSATVPAKWEAIPFPTANKSRSAAMPTLNAVGAMTGTDSRLLATFASIESAFDYTVKASTSSATGWFQFLDATWDDMIKAHGSKYGIPKDPTRALRKDPRANALMGAEFLKGNAAVLRPVINREPSDTDLYLAHFLGAGGAKKFLSADQKTLGEVLFPKPAKANPSIFSNKGVPRTLAEIYKLFEDKVSKHRA
# modifications: 6xHis tag; synthetic_Endolysin LNT101
# B2: LNT103: fusion polypeptide [Cecropin A]-[linker (GSGSGS)]-[endolysin LNT102]; SEQ ID NO: 15 (MAS, His tag) used in the tests (protein)
# chain: MASKWKLFKKIEKVGQNIRDGIIKAGPAVAVVGQATQIAKGSGSGSMGTVLKRGDRGSAVEDLQMKLNVAGYNLSADGIFGGDTEKAVRDVQAGAGLVVDGKVGPKTLYAIAKSATVPAKWEAIPFPTANKSRSAAMPTLNAVGAMTGVDSRLLATFASIESAFDYTVKAKTSSATGWFQFLDATWDDMIKAYGSKYGIPKDPTRALRKDPRANALMGAEFIKGNAAVLRPVINREPSDTDLYLAHFLGAGGAKKFLSADQKTLGEVLFPKPAKANPSIFSNKGVPRTLAEIYKLFEDKVSKHRALEHHHHHH
# modifications: synthetic_Fusion Polypeptide LNT103 with MAS, His tag, and extra sequence
# Key:
# [1] = tested on: gram negative bacterium; assay: CFU reduction evaluation on various gram negative bacterium; assay type: cell-based
# Protocol: For this, Endolysin LNT101 and LNT102 at a concentration of 2 μM and each 1×10^6 CFU of Pseudomonas aeruginosa (PA01; ATCC 15692), Acinetobacter baumannii (ATCC 17978), Escherichia coli (ATCC 8739), Klebsiella pneumoniae (ATCC 13883), Enterobacter aerogenes (CCARM 16006), and Salmonella enteritidis (ATCC 13076) was added in reaction buffer (20 mM Tris-Cl, pH 7.5) so that the final volume was 200 μl, and it was left at 37° C. for 2 hours. In 2 hours, the number of colonies of each gram negative bacterium was confirmed, and the result was shown in FIG. 8 (in FIG. 8, PA90 represents endolysin LNT101 and mtPA90 represents endolysin LNT102, respectively).
# The endolysin LNT102 at a concentration of 0.1, 0.5, 2.5 μM, and each 1×10^6 CFU of Pseudomonas aeruginosa, Acinetobacter baumannii, and Escherichia coli was added in reaction buffer (20 mM Tris-Cl, pH 7.5) so that the final volume was 200 μl, and it was left at 37° C. for 2 hours.
# (§1) In order to confirm the killing ability against gram negative bacterium of the fusion polypeptide LNT103 prepared in Example 3.2, CFU reduction evaluation was performed for various gram negative bacterium. In order to perform the CFU reduction evaluation, 2 μM of each of LNT101, LNT102, and LNT103 prepared in Example 3, and 1×10^6 CFU of each of Pseudomonas aeruginosa (PA01; ATCC 15692), Acinetobacter baumannii (ATCC 17978), Escherichia coli (ATCC 8739), Klebsiella pneumoniae (ATCC 13883), and Enterobacter aerogenes (CCARM 16006) were added to reaction buffer (20 mM Tris-Cl, pH7.5) so that the final volume was 200 μl, and it was left at 37° C. for 2 hours. After that, the number of the colonies of each gram negative bacterium was confirmed to compare and evaluate the antibiotic effect of each polypeptide. As a control group, the PBS treatment group (treating PBS in the same volume as the fusion polypeptide) was used.
# In addition, the same test was performed by using the fusion polypeptide LNT103, and CecA-LNT101 at a concentration of 2 μM, and the result was shown in FIG. 15. For comparison, the same test was performed for groups treated with LNT102 or PBS.
# On the other hand, in order to compare the antibacterial activity in case that a protein other than endolysin (LNT102 or LNT101) was fused to Cecropin A, the killing ability against gram negative bacterium of the fusion polypeptide LNT103 and cecropin A-EGFP fusion protein (a protein in which EGFP (GenBank Accession No. AAB02572.1) having no endolysin activity by replacing LNT102 in LNT103) was evaluated. For this, the proteins were treated in an amount of 0.2 μM or 2 μM, respectively, to perform the CFU reduction test. […] In particular, it could be confirmed that the CFU Counting result for all the tested gram negative bacterium killed all bacterium treated with 0, when LNT103 2 μM was treated.
# Furthermore, the killing ability against gram negative bacterium according to the concentration and/or treatment time of the fusion polypeptide LNT103 was tested. Specifically, the fusion polypeptide LNT103 at a concentration of 0.1, 0.3, 0.9, or 2.7 μM and 1×10^6 CFU of Pseudomonas aeruginosa (PA01; ATCC 15692) or Acinetobacter baumannii (ATCC 19606) were added to reaction buffer (20 mM Tris-Cl, pH7.5) so that the final volume was 200 μl, and it was left at 37° C. for 2 hours, and then the number of the colonies was confirmed, and the result was shown in A of FIG. 17.
# In addition, the fusion polypeptide LNT103 at a concentration of 2 μM and 1×10^6 CFU of Pseudomonas aeruginosa (PA01; ATCC 15692) were added to reaction buffer (20 mM pH7.5) so that the final volume was 200 μl, and in 0, 20 minutes, 40 minutes and 60 minutes at 37° C., the number of the colonies was confirmed, and the result was shown in B of FIG. 17. […]
# [2] = tested on: Acinetobacter baumannii; assay: CFU reduction test; assay type: cell-based
# Protocol: In addition, that the LNT101 endolysin had the antibacterial ability in various gram negative bacterium was confirmed by a CFU reduction test, and the result was shown in Table 2 below.
# as §1
# [3] = tested on: Acinetobacter baumannii ATCC 19606; assay: Acinetobacter baumannii systemic infection mouse model, viability; assay type: in vivo; conditions: ICR male mice; LNT103 20 mpk and 100 mpk, subcutaneous injection 1 hour and 4 hours after infection; comparative colistin 20 mpk
# Protocol: For in vivo effectivity evaluation of the fusion polypeptide LNT103, the viability was confirmed in an Acinetobacter baumannii ATCC 19606 systemic infection mouse model was confirmed.
# The process of progressing an animal experiment was as follows. Mice were used when ICR male 4-week-old mice were purchased and a one-week adaptation period was passed, and the weight was 20˜21 g at 5-6 weeks of age. The Acinetobacter bacteria were mixed with 10% mucin at 1:1, and 0.5 ml of 2×10^8 CFU/ml (5% mucin) of the bacterial solution was inoculated intraperitoneally into mice. In 1 hour and 4 hours after infection, LNT103 20 mpk and LNT103 100 mpk, and colistin 20 mpk as a comparative group were administered, respectively, through a subcutaneous injection.
# [4] = tested on: Acinetobacter baumannii (ATCC 19606); assay: FIC index, combination of colistin and LNT103; assay type: cell-based; conditions: LNT103 in combination with colistin (polymyxin E)
# Protocol: The synergy effect of killing ability against gram negative bacterium by combination treatment of a polymyxin-based antibiotic having a mechanism acting on the cell membrane of bacterium and the fusion polypeptide LNT103 was confirmed. Specifically, colistin (polymyxin E) of […] was treated to a 96 well microplate column 1, and it was treated at a concentration where serial dilution was performed by ½ in columns 2-11. The LNT103 of 16 μg/ml was treated to row A, and it was treated at a concentration where serial dilution was performed by ½ in rows B-G. After that, Acinetobacter baumannii (ATCC 19606) was treated in an amount of 5×10^5 CFU/ml, total 100 μl in all wells. Then, it was cultured at 37° C. for 18 hours, and the FIC (Fractional Inhibitory Concentration) index value was calculated by the following equation: FIC index=FICA+FICB=(CA/MICA)+(CB/MICB)
# (CA and CB are each concentration of substances treated in combination (polymyxin E and LNT103), and MICA and MICB are MIC of single drug,
# FIC value: synergy effect <0.5; antagonism >4; additive 0.5-4)
Molecule,"killing ability (number of colonies) ([1]; 2 μM, 2 hours, 37° C., P. aeruginosa PA01, A. baumannii ATCC 17978, E. coli ATCC 8739, K. pneumoniae ATCC 13883, E. aerogenes CCARM 16006, S. enteritidis ATCC 13076)",CFU reduction ([2]; A. baumannii ATCC 2508),CFU reduction ([2]; A. baumannii F4),CFU reduction ([2]; A. baumannii F15),antibacterial activity (CFU reduction test) ([1]; 0.2 μM or 2 μM (FIG. 16)),"CFU reduction effect compared to LNT101 and LNT102 ([1]; 2 μM, 2 hours, 37° C., 1×10^6 CFU of each gram negative bacterium)","counting result ([1]; 2 μM, all the tested bacterium (FIG. 15)) [log CFU/ml]","CFU Counting result ([1]; LNT103 2 μM, all the tested gram negative bacterium (FIG. 16))","killing ability (number of colonies) ([1]; P. aeruginosa PA01 and A. baumannii ATCC 19606, 0.1-2.7 μM 2 hours, 2 μM 0-60 minutes, 1 μM 0-10 minutes)",viability for 96 hours [3],"FIC index value ([4]; 5×10^5 CFU/ml, 37° C. 18 hours)",interaction of the two substances by FIC index ([4]; synergy effect <0.5),"CFU Counting result ([2]; Acinetobacter baumannii (ATCC 19606, ATCC 17978), 2 μM, 2 hours) [log CFU/ml]"
B1,excellent killing ability compared to the control group,◯ (‘◯’ means reduction of 0.5 log CFU or more through the CFU reduction assay),◯ (‘◯’ means reduction of 0.5 log CFU or more through the CFU reduction assay),◯ (‘◯’ means reduction of 0.5 log CFU or more through the CFU reduction assay),–,–,–,–,–,–,–,–,–
B2,–,–,–,–,had excellent antibacterial activity,1.5˜5.5 log CFU/ml,0,0,had the killing ability against gram negative bacterium in a concentration and time-dependent manner,higher viability compared to the non-administration group (control) and comparative group (colistin administration group),0.375,there was a synergy effect between the two substances,0
